In general, Kd refers to the concentration at which binding is half-saturated.

In the data set the target is preKARS2 (cytosolic precursor of human mitochondrial lysyl-tRNA synthetase) (human, UniProt Q15046-2 1-625). Put plainly: EMSA; 10 mM Mg2+; EMSA: 20 mM Tris-HCl pH 7.5, 150 mM NaCl, 10 mM MgCl2, 5 mM DTT, 10% glycerol, 0.1 mg/ml BSA, 30 C, 15 min; native 8% PAGE in 0.5x Tris-borate pH 8.3, 5% glycerol. The following applies: protein: recombinant; tags: C-terminal 6xHis; chain copies: 2; label: 5'-32P; D-arm and F-hairpin with linker. (A gel shift assay detects complexes by their altered migration in electrophoresis.)
Chain of preKARS2 (cytosolic precursor of human mitochondrial lysyl-tRNA synthetase) (Q15046 other isoform, or with tags, fused parts or gaps): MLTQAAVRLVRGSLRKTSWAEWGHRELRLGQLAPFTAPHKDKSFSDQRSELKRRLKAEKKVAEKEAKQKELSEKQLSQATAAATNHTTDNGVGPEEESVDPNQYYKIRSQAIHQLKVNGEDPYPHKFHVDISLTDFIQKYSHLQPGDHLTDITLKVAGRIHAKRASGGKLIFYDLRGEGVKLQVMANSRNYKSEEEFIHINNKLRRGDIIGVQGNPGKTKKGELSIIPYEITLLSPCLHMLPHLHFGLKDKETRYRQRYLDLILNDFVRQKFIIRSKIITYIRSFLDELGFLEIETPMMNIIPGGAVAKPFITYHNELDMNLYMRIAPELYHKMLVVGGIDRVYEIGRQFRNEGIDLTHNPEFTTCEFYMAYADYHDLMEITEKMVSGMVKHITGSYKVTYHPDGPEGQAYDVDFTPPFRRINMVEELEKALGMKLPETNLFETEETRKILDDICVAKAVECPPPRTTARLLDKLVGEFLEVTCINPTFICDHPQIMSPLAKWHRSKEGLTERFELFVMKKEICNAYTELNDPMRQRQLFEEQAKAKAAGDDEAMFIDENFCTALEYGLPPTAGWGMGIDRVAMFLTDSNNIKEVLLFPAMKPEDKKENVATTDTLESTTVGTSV

B1: FD-H (structured_RNA)
RNA: GCGCAAUCGGUAGCGCAGUAAGCACUGUAAAUGAGCCCCCUACAGGGCUCUU
As to B1, the Kd came out at 400 ± 50 nM.

B2: FD-L (structured_RNA)
RNA: GCGCAAUCGGUAGCGCCUCUUUACAGUGCUUAGUUCUCGAGCCCCCUACAGGGCUCUU
For B2, the Kd came to 400 ± 50 nM.

Values taken from paper PMC3683045, “Induced tRNA Import into Human Mitochondria: Implication of a Host Aminoacyl-tRNA-Synthetase”.
